# US7005505 (Genentech, dated 2006)
# Substitutions are numbered along the chain they refer to. Numbers in names are those of the source.
# B1: wildtype VEGF165 expressed in 293 cells (ligand)
# chain: APMAEGGGQNHHEVVKFMDVYQRSYCHPIETLVDIFQEYPDEIEYIFKPSCVPLMRCGGCCNDEGLECVPTEESNITMQIMRIKPHQGQHIGEMSFLQHNKCECRPKKDRARQENPCGPCSERRKHLFVQDPQTCKCSCKNTDSRCKARQLELNERTCRCDKPRR
# modifications: N-linked carbohydrate at Asn75
# notes: Transiently expressed in 293 cells; tested as conditioned medium
# B2: purified CHO-derived VEGF165 (ligand)
# chain: B1 chain
# notes: Homodimer; also called VEGF (CHO cell); wildtype VEGF165 derived from CHO cells
# B3: H86A VEGF (ligand)
# chain: B1 chain with H86A
# notes: VEGF165 mutant from 293 cells, conditioned medium
# B4: R82A, K84A, H86A VEGF (ligand)
# chain: B1 chain with R82A, K84A, H86A
# notes: VEGF165 mutant from 293 cells, conditioned medium; also called R82A, K84A, H86 VEGF
# B5: R82A VEGF (ligand)
# chain: B1 chain with R82A
# notes: as for B3
# B6: E64A VEGF (ligand)
# chain: B1 chain with E64A
# notes: as for B3
# B7: D63A, E64A, E67A VEGF (ligand)
# chain: B1 chain with D63A, E64A, E67A
# notes: as for B3
# B8: D63A VEGF (ligand)
# chain: B1 chain with D63A
# notes: as for B3
# B9: E64N, L66S VEGF (ligand)
# chain: B1 chain with E64N, L66S
# modifications: putative extra N-linked glycosylation at position 64
# notes: Neo-glycosylation mutant from 293 cells, conditioned medium
# B10: K84A VEGF (ligand)
# chain: B1 chain with K84A
# notes: as for B3
# B11: E67A VEGF (ligand)
# chain: B1 chain with E67A
# notes: as for B3
# B12: E64S VEGF (ligand)
# chain: B1 chain with E64S
# notes: preparation not described further
# B13: RIK(82-84)NLS VEGF (ligand)
# chain: B1 chain with R82N, I83L, K84S
# modifications: potential N-linked glycosylation site at position 82 (extent of glycosylation not apparent)
# notes: Neo-glycosylation mutant from 293 cells, conditioned medium; also called R82N, I83L, K84S
# B14: R23A VEGF (ligand)
# chain: B1 chain with R23A
# notes: as for B3
# B15: K48A VEGF (ligand)
# chain: B1 chain with K48A
# notes: as for B3
# B16: D109A, R110A VEGF (ligand)
# chain: B1 chain with D109A, R110A
# notes: as for B3
# B17: E44A VEGF (ligand)
# chain: B1 chain with E44A
# notes: as for B3
# B18: E42A VEGF (ligand)
# chain: B1 chain with E42A
# notes: as for B3
# B19: R112A, E114A VEGF (ligand)
# chain: B1 chain with R112A, E114A
# notes: as for B3
# B20: N75A VEGF (ligand)
# chain: B1 chain with N75A
# notes: Unglycosylated form of VEGF from 293 cells, conditioned medium
# B21: H90A, E93A VEGF (ligand)
# chain: B1 chain with H90A, E93A
# notes: VEGF165 mutant from 293 cells, conditioned medium; also called H9OA, E93A
# B22: H99A, K101A VEGF (ligand)
# chain: B1 chain with H99A, K101A
# notes: as for B3
# B23: D34A VEGF (ligand)
# chain: B1 chain with D34A
# notes: as for B3
# B24: K107A, K108A VEGF (ligand)
# chain: B1 chain with K107A, K108A
# notes: as for B3
# B25: H11A, H12A, E13A VEGF (ligand)
# chain: B1 chain with H11A, H12A, E13A
# notes: as for B3
# B26: E72A, E73A VEGF (ligand)
# chain: B1 chain with E72A, E73A
# notes: as for B3
# B27: R105A VEGF (ligand)
# chain: B1 chain with R105A
# notes: as for B3
# B28: E42N, E44S VEGF (ligand)
# chain: B1 chain with E42N, E44S
# modifications: N-linked carbohydrate at position 42 (apparently glycosylated)
# notes: Neo-glycosylation control mutant from 293 cells, conditioned medium
# B29: E38A VEGF (ligand)
# chain: B1 chain with E38A
# notes: as for B3
# B30: KKDR(107-110)AAAA VEGF (ligand)
# chain: B1 chain with K107A, K108A, D109A, R110A
# notes: VEGF165 mutant from 293 cells, conditioned medium; also called K107A, K108A, D109A, R110A
# B31: E103A VEGF (ligand)
# chain: B1 chain with E103A
# notes: as for B3
# B32: E5A VEGF (ligand)
# chain: B1 chain with E5A
# notes: as for B3
# B33: E30A VEGF (ligand)
# chain: B1 chain with E30A
# notes: as for B3
# B34: D41A VEGF (ligand)
# chain: B1 chain with D41A
# notes: as for B3
# Biological target: T1, KDR-IgG (UniProt P35968 20-764)
# T1 construct: Construct only cited from Park et al. 1994; also called KDR receptor-IgG chimera; soluble KDR; not shown: IgG part of the chimera (captured by anti-human IgG Fc)
# T1 sequence (P35968 20-764): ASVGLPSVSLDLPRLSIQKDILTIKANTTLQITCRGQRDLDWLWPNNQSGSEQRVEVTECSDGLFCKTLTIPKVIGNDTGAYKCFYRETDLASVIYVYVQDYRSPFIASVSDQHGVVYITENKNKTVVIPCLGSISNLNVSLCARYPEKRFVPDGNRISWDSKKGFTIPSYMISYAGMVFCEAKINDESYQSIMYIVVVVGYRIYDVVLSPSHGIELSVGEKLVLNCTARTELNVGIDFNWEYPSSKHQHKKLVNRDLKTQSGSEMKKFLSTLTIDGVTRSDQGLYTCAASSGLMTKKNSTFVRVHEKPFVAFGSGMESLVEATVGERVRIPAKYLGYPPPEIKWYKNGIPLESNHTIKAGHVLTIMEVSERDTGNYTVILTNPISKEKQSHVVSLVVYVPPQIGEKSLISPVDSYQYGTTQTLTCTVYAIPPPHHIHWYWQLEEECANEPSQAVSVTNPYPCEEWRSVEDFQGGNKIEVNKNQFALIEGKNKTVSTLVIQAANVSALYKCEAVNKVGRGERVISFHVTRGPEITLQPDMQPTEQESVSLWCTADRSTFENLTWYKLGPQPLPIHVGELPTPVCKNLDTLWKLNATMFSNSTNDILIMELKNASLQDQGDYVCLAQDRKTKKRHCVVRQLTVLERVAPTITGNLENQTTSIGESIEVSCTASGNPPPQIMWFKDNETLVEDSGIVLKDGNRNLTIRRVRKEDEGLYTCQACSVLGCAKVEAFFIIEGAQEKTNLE
# Assay: competition with 125I-VEGF165 for KDR-IgG, n=8
# Procedure: (§1) After the supernatant was discarded, the wells were washed three times in washing buffer (0.01% Tween 80 in PBS). The plate was blocked (300 µl/well) for one hr in assay buffer (0.5% BSA, 0.03% Tween 80, 0.01% Thimerosal in PBS). The supernatant was discarded and the wells were washed. […] Aliquots of this solution (100 µl) were added to pre-coated microtiter plates and incubated for 4 hr at ambient temperature with gentle agitation. The supernatant was discarded, the plate washed, and individual microtiter wells were counted by gamma scintigraphy (LKB model 1277).
# (§2) In addition to the specific amino acid substitutions, the table indicates the mean residue number for the position of the mutation(s). For a given mutant, this number is the average of the altered positions.
row,IC50 [nM],Binder
1,0.031,B1

# Biological target: T2, FLT-1 IgG (UniProt P17948 27-758)
# T2 construct: Construct only cited from Park et al. 1994; also called FLT-IgG; FLT-1 receptor-IgG chimera; not shown: IgG part of the chimera (captured by anti-human IgG Fc)
# T2 sequence (P17948 27-758): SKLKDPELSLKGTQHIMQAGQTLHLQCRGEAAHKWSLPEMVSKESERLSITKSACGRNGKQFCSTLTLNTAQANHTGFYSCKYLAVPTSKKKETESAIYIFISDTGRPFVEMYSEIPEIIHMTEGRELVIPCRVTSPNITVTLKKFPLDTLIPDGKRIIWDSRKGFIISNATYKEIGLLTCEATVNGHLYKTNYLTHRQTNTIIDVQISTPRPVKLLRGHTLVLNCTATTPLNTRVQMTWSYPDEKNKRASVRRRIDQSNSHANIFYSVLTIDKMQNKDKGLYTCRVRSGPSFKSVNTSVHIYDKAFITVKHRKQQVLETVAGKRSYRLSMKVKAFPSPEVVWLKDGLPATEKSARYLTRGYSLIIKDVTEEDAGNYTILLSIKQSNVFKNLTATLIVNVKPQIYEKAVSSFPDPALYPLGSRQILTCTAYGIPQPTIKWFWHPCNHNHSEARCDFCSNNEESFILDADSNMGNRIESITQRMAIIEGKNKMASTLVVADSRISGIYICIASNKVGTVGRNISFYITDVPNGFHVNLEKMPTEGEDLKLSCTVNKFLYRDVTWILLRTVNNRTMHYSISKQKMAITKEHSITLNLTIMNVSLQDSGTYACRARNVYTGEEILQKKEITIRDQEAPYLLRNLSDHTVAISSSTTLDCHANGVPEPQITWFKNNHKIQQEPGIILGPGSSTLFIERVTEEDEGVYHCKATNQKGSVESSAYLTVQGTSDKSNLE
# Assay: competition with 125I-VEGF165 for FLT-1-IgG, radioligand plate assay
# Procedure: as §1
row,IC50 [ng/mL],Binder
1,0.95,B2
2,1.19,B3
3,1.7,B4
4,1.23,B5
5,0.94,B6
6,44.6,B7
7,1.54,B8
8,35.6,B9
9,1.91,B10
10,0.47,B11
11,1.9,B12
12,1.63,B13

# Biological target: T1, KDR-IgG
# Assay: competition with 125I-VEGF165 for KDR-IgG, radioligand plate assay
# Procedure: as §1
row,IC50 [ng/mL],Binder
1,2,B3
2,8,B6
3,2,B14
4,> 10000,B13

# Biological target: T2, FLT-1 IgG
# Assay: competition with 125I-VEGF165 for FLT-1-IgG, with heparin
# Procedure: as §1
row,IC50 [nM],Binder
1,0.015,B1
2,0.65,B9

# Biological target: T1, KDR-IgG
# Assay: competition with 125I-VEGF165 for KDR-IgG, radioligand plate assay, no heparin
# Procedure: as §1, §2
row,IC50 [nM],Binder
1,0.03,B1
2,0.02,B15
3,0.005,B8
4,0.03,B16
5,0.004,B17
6,0.007,B18
7,0.04,B19
8,> 100,B13

# Biological target: T2, FLT-1 IgG
# Assay: competition with 125I-VEGF165 for FLT-1-IgG, radioligand plate assay
# Remark: another data set of the same source
# Procedure: as §1
row,IC50 [ng/mL],Binder
1,0.95,B2
2,1.26,B20
3,0.077,B21
4,1.08,B15
5,1.33,B22
6,0.59,B23
7,2.94,B24
8,0.62,B25
9,0.91,B26
10,1.57,B27
11,0.77,B28
12,1,B14
13,1.42,B16
14,0.87,B29
15,0.54,B17
16,0.51,B18
17,0.56,B19
18,2.42,B30
19,0.74,B31

# Biological target: T2, FLT-1 IgG
# Assay: competition with 125I-VEGF165 for FLT-1-IgG, radioligand plate assay, no heparin
# Procedure: as §1
row,IC50 [nM],Binder
1,0.022,B1
2,0.019,B2
3,0.015,B3
4,0.022,B32
5,0.022,B20
6,0.026,B21
7,0.026,B15
8,0.048,B4
9,0.02,B5
10,0.016,B6
11,0.03,B22
12,0.011,B23
13,0.066,B24
14,0.78,B7
15,0.026,B8
16,0.98,B9
17,0.024,B10

row,IC50 [nM],Binder
1,0.008,B11
2,0.02,B25
3,0.03,B26
4,0.038,B27
5,0.028,B33
6,0.013,B28
7,0.03,B14
8,0.035,B16
9,0.015,B29
10,0.009,B17
11,0.008,B18
12,0.013,B19
13,0.022,B34
14,0.054,B30
15,0.017,B31
16,0.029,B13
